# Assay results from patent publication US20090087428A1.
# B1: Antibody 5A6.2.1 (anti-human FcγRIIB monoclonal antibody) (antibody)
# VH: EVKLEESGGGLVQPGGSMKLSCVASGFTFSDAWMDWVRQSPERGLEWVAEIRSKPNNHATYYAESVKGRFTISRDDSKSSVYLQMTSLRPEDTGIYYCTHFDYWGQGTTLTVSSAKTTGPSVFPLAPSSKSTSGGTAALGCLVKDYFPEPVTVSWNSGALTSGVHTFPAVLQSSGLYSLSSVVTVPSSSLGTQTYICNVNHKPSNTKVDKKVEPKSCDKTHT
# VL: DIQMTQSPSSLSASLGERVSLTCRASQEISGYLSWFQQKPDGTIKRLIYAASALDSGVPKRFSGSWSGSDYSLTISSLESEDFADYYCLQYVSYPLTFGAGTKLELKRTVAAPSVFIFPPSDEQLKSGTASVVCLLNNFYPREAKVQWKVDNALQSGNSQESVTEQDSKDSTYSLSSTLTLSKADYEKHKVYACEVTHQGLSSPVTKSFNRGEC
# Target: GST-huFcγRIIA(R131) (human) [GST: P08515]
# Assay: ELISA, plate-coated GST fusion (FIG. 8)
binder,measurement,value
B1,EC50,2.5 µg/mL
